B1: OR4K15 (parent)
chain: GUUAACGGUCAUAGGCCAUGGAAACUAGGAGCACCAUUUCGCUGCCAGUGAAGAAAUGAACAAAGAAAAUCUGGGCCAGGCAGGCAUCAAAAGAAAUAGUCUUGCGCUCAACCAGAAAGUCUGUAAUCAUUUUAAGGGUA

Variants of B1 are the subject of this series. The series is described as follows: self-cleavage, relative activity (ratio to wild type); higher = more cleavage; in vitro, sequencing; the parent is a self-cleaving ribozyme.
In the case of GUUAACGGUCAUAGGCCAUGGAAACUAGGAGCACCAUUUCGCUGCCAGUGAAGAGAUGAACAAAGAAAAUCUGGGCCAGGCAGGCAUCAAAAGAAAUAGUCUUGCGCCCAACCAGAAAGUCUGUAAUCAUUUUAAGGGUA [A55G U108C], the self-cleavage worked out at 0.01.
As to GUUAACGGUCAUAGGCCAUGGAAACUAGGAGCACCAUUUCGCUGCCAGUGAAGAGAUGAACAAAGAAAAUCUGGGCCAGGCAGGCAUCAAAAGAAAUAGUCUUGCACUCAACCAGAAAGUCUGUAAUCAUUUUAAGGGUA [A55G G106A], the self-cleavage is 0.01.
Under GUUAACGGUCAUAGGCCAUGGAAACUAGGAGCACCAUUUCGCUGCCAGUGAAGAGAUGAACAAAGAAAAUCUGGGCCAGGCAGGCAUCAAAAGAAAUAGUCUUGCGCUCAACCAGAAAGACUGUAAUCAUUUUAAGGGUA [A55G U120A] stands 1.67.
Under GUUAACGGUCAUAGGCCAUGGAAACUAGGAGCACCAUUUCGCUGCCAGUGAAGAGAUGAACAAAGAAAAUCUGGGCCAGGCAGGCAUCAAAAGAAAUAGUCUUGCGCUCAACCAGAAAGUCUGUAAUCAUUUUAAGGAUA [A55G G138A] stands 1.54.
In the case of GUUAACGGUCAUAGGCCAUGGAAACUAGGAGCACCAUUUCGCUGCCAGUGAAGAGAUGAACAAAGAAAAUCUGGGCCAGGCAGGCAUCAAAAGAAAUAGUCUUGCGCUCAACCAGAAAGUCUGUAAUCAUUUCAAGGGUA [A55G U133C] it was 1.83.
With GUUAACGGUCAUAGGCCAUGGAAACUAGGAGCACCAUUUCGCUGCCAGUGAAGAGAUGAACAAAGAAAAUCUGGGCCAGGCAGGCAUCAAAAGAAAUAGUCCUGCGCUCAACCAGAAAGUCUGUAAUCAUUUUAAGGGUA [A55G U102C], the self-cleavage was 1.75.
Under GUUAACGGUCAUAGGCCAUGGAAACUAGGAGCACCAUUUCGCUGCCAGUGAAGAGAUGAACAAAGAAAAUCUGGGCCAGGCAGGCAUCAAAAGAAAUAGCCUUGCGCUCAACCAGAAAGUCUGUAAUCAUUUUAAGGGUA [A55G U100C] stands 1.93; under GUUAACGGUCAUAGGCCAUGGAAACUAGGAGCACCAUUUCGCUGCCAGUGAAGAGAUGAACAAAGAAAAUCUGGGCCAGGCAGGCAUCAAAAGAAAUAGACUUGCGCUCAACCAGAAAGUCUGUAAUCAUUUUAAGGGUA [A55G U100A], 0.48; under GUUAACGGUCAUAGGCCAUGGAAACUAGGAGCACCAUUUCGCUGCCAGUGAAGAGAUGAACAAAGAAAAUCUGGGCCAGGCAGGCAUCAAAAGAAAUAGUCUUGCGCUCAACCAGAAAGUCUGUAAUCAUUUUAAGAGUA [A55G G137A], 1.82.
In the case of GUUAACGGUCAUAGGCCAUGGAAACUAGGAGCACCAUUUCGCUGCCAGUGAAGAGAUGAACAAAGAAAAUCUGGGCCAGGCAGGCAUCAAAAGAAAUAGUCUUGCGCUCAACCAGAAAGUCUGUAAUCAUUUUAAGGGAA [A55G U139A] it was 1.49; in that of GUUAACGGUCAUAGGCCAUGGAAACUAGGAGCACCAUUUCGCUGCCAGUGAAGAGAUGAACAAAGAAAAUCUGGGCCAGGCAGGCAUCAAAAGAAAUAGUCUUGCGCUCAACCAGAAAGUCUGUAAUCAUUUUAAGGGCA [A55G U139C], 1.72; in that of GUUAACGGUCAUAGGCCAUGGAAACUAGGAGCACCAUUUCGCUGCCAGUGAAGAGAUGAACAAAGAAAAUCUGGGCCAGGCAGGCAUCAAAAGAAAUAGUCUUGCGCUCAACCAGAAAGUCUGUAAUCACUUUAAGGGUA [A55G U130C], 0.96.
For the variant GUUAACGGUCAUAGGCCAUGGAAACUAGGAGCACCAUUUCGCUGCCAGUGAAGAGAUGAACAAAGAAAAUCUGGGCCAGGCAGGCAACAAAAGAAAUAGUCUUGCGCUCAACCAGAAAGUCUGUAAUCAUUUUAAGGGUA [A55G U87A], the self-cleavage came to 1.33.
Under GUUAACGGUCAUAGGCCAUGGAAACUAGGAGCACCAUUUCGCUGCCAGUGAAGAGAUGAACAAAGAAAAUCUGGGCCAGGCAGGCAUCAAAAGAAAUAGUCUUGCGCUCAACCAGAAAGUCGGUAAUCAUUUUAAGGGUA [A55G U122G] stands 2.18.
In the case of GUUAACGGUCAUAGGCCAUGGAAACUAGGAGCACCAUUUCGCUGCCAGUGAAGAGAUGAACAAAGAAAAUCUGGGCCAGGCAGGCAUCAAAAGAAAUAGUCUUGCGCUCAACCAGAAAGUCCGUAAUCAUUUUAAGGGUA [A55G U122C] it was 1.2; in that of GUUAACGGUCAUAGGCCAUGGAAACUAGGAGCACCAUUUCGCUGCCAGUGAAGAGAUGAACAAAGAAAAUCUGGGCCAGGCAGGCAUCAAAAGAAAUAGUCUUGCGCUCAACCAGAAAGUCAGUAAUCAUUUUAAGGGUA [A55G U122A], 1.39.
Under GUUAACGGUCAUAGGCCAUGGAAACUAGGAGCACCAUUUCGCUGCCAGUGAAGAGAUGAACAAAGAAAAUCUGGGCCAGGCAGGCAUCAAAAGAAAUAGUCUUGCGCUCAACCAGAAAGUCUUUAAUCAUUUUAAGGGUA [A55G G123U] stands 2.01; under GUUAACGGUCAUAGGCCAUGGAAACUAGGAGCACCAUUUCGCUGCCAGUGAAGAGAUGAACAAAGAAAAUCUGGGCCAGGCAGGCAUCAAAAGAAAUAGUCUUGCGCUCAACCAGAAAGUCUAUAAUCAUUUUAAGGGUA [A55G G123A], 1.61; under GUUAACGGUCAUAGGCCAUGGAAACUAGGAGCACCAUUUCGCUGCCAGUGAAGAGAUGAACAAAGAAAAUCGGGGCCAGGCAGGCAUCAAAAGAAAUAGUCUUGCGCUCAACCAGAAAGUCUGUAAUCAUUUUAAGGGUA [A55G U72G], 0.25.
GUUAACGGUCAUAGGCCAUGGAAACUAGGAGCACCAUUUCGCUGCCAGUGAAGAGAUGAACAAAGAAAAUCUGGGCCAGGCAGGCAUCAAAAGAAAUAGUCUUGCGCUCAACCAGAAAGUCUGUAAUCAUUUUAAAGGUA [A55G G136A]: the self-cleavage amounted to 1.36.
As to GUUAACGGUCAUAGGCCAUGGAAACUAGGAGCACCAUUUCGCUGCCAGUGAAGAGAUGAACAAAGAAAAUCUGGGCCAGGCAGGCAUCAAAAGAAAUAGUCUUGCGCUCAACCAGAAAGUCUGUAACCAUUUUAAGGGUA [A55G U127C], the self-cleavage is 0.82.
